According to patent publication US20150166662A1 (ROCKEFELLER UNIVERSITY, published 2015):
Substitutions are numbered along the chain they refer to.

B1: LM30E, ibalizumab light chain mutant with an N-linked glycosylation site at position 30E (antibody, human IgG1, kappa, V domains shown)
VH: QVQLQQSGPEVVKPGASVKMSCKASGYTFTSYVIHWVRQKPGQGLDWIGYINPYNDGTDYDEKFKGKATLTSDTSTSTAYMELSSLRSEDTAVYYCAREKDNYATGAWFAYWGQGTLVTVSS
VL: DIVMTQSPDSLAVSLGERVTMNCKSSQSLLYSTNNATYLAWYQQKPGQSPKLLIYWASTRESGVPDRFSGSGSGTDFTLTISSVQAEDVAVYYCQQYYSYRTFGGGTKLEIKR
B2: LM52, glycan-modified anti-CD4 IgG1 antibody with an N-linked glycan at light chain position 52 (antibody, V domains shown)
VH: B1 VH
VL: B1 VL with N35Q, A36K, T37N, S58N, T59S, R60T
B3: LM54, ibalizumab light chain mutant with an N-linked glycosylation site at position 54 (antibody, human IgG1, kappa, V domains shown)
VH: B1 VH
VL: B1 VL with N35Q, A36K, T37N, R60N, E61A, S62T
B4: LM67, ibalizumab light chain mutant with an N-linked glycosylation site at position 67 (antibody, human IgG1, kappa, V domains shown)
VH: B1 VH
VL: B1 VL with N35Q, A36K, T37N, S73N, G74A
B5: LM53, ibalizumab light chain mutant with an N-linked glycosylation site at position 53 (antibody, human IgG1, kappa, V domains shown)
VH: B1 VH
VL: B1 VL with N35Q, A36K, T37N, T59N, R60A, E61T
B6: LM60, ibalizumab light chain mutant with an N-linked glycosylation site at position 60 (antibody, human IgG1, kappa, V domains shown)
VH: B1 VH
VL: B1 VL with N35Q, A36K, T37N, D66N, R67A, F68T
B7: LM76, ibalizumab light chain mutant with an N-linked glycosylation site at position 76 (antibody, human IgG1, kappa, V domains shown)
VH: B1 VH
VL: B1 VL with N35Q, A36K, T37N, S82N, S83A, V84T
B8: LM65, ibalizumab light chain mutant with an N-linked glycosylation site at position 65 (antibody, human IgG1, kappa, V domains shown)
VH: B1 VH
VL: B1 VL with N35Q, A36K, T37N, S71N, G72A, S73T

Assays:
[1] = molecular target: T1, recombinant sCD4 comprising the full-length extracellular domain of human CD4 (human, UniProt P01730 26-396); test: SPR (Biacore), antibody amine-coupled on the chip, human sCD4 as analyte, 25 C, 1:1 Langmuir fit
T1 construct: also called human soluble CD4; human sCD4 protein
Experimental: (§1) Binding affinity analyses were performed with a Biacore T3000 optical biosensor (GE Healthcare, Piscataway, N.J.). Immobilization of ibalizumab and all the glycan variants were performed following the standard amine coupling procedure. Briefly, carboxyl groups on the sensor chip surface were activated by injection of 35 μL of a solution containing 0.2 M N-(3-dimethylaminopropyl)-N-ethylcarbodiimide and 0.05 M Nhydroxysuccinimide at a flow rate of 5 μL/minute. Next, ibalizumab or its mutant variant, at a concentration of 2 μg/mL in 10 mM sodium-acetate buffer, pH 4.5, was allowed to flow over the chip surface at a rate of 10 μL/minute until the desired level of response units of reacted protein (150-200 RU) was achieved. After unreacted protein was washed out, excess active ester groups on the sensor surface were capped by the injection of 35 μL of 1 M ethanolamine, pH 8.0, at a flow rate of 5 μL/minute. As background to correct instrument and buffer artifacts, a reference was generated under the same conditions with omission of the protein ligand. Binding experiments were performed at 25° C. in HBS-EP buffer (0.01 M HEPES, 0.15M NaCl, 3 mM EDTA, 0.005% vol/vol surfactant P20 (GE Healthcare). Binding kinetics were measured by passing various concentrations of analyte (human sCD4 protein) over the chip surface at a flow rate of 30 μL/minute for 3 min. Dissociation of bound analytes was monitored while the surface was washed for 10 min. Remaining analytes were removed at a flow rate of 50 µL/minute with two 30-sec injections of 10 mM glycine-HCl, pH 2.0. For kinetics data analysis, the kinetic parameters were determined by collectively fitting the overlaid sensograms […] using the BIAevaluation 4.1 software to the 1:1 Langmuir binding model.
(§2) We next evaluated the kinetics of binding of these ibalizumab LMs to human soluble CD4 (sCD4) by surface plasmon resonance. In a Biacore assay using sCD4 as the analyte, WT ibalizumab and LMs bound sCD4 with similar binding kinetics.

[2] = molecular target: T1, recombinant sCD4 comprising the …; test: SPR (Biacore), sCD4 as analyte; member of the six by its KD in Table 1
Experimental: as §1, §2

Binder	Kd [1] [pM]	koff [1] [s⁻¹]	kon [1] [M⁻¹ s⁻¹]	fold of KD against wild-type ibalizumab [2] [fold]
B1	1400	0.00015	110000	–
B2	350	0.00016	460000	≤ 2
B3	730	0.00027	370000	≤ 2
B4	800	0.0002	250000	≤ 2
B5	450	0.00013	290000	≤ 2
B6	190	8.3e-05	440000	≤ 2
B7	280	0.00014	500000	≤ 2
B8	1500	0.00049	330000	–
